# Test results published in US20050282743A1, “Molecular interactions in cells” (Arbor Vita Corporation, priority 2001, published 2005).
# Where “and” joins values, the source holds several entries; their conditions need not be identical. Equal entries are not always repeated.
# Assays:
# [1] = molecular target: T1, GST-ZO-1 PDZ domain 1 (Rattus norvegicus (Rat)), A0A0G2; assay: G assay titration, PDZ 5 ug/ml
# T1 chain: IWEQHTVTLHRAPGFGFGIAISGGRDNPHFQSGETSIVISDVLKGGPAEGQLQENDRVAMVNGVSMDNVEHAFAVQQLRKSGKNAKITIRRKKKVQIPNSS
# [2] = molecular target: T2, GST-KIAA1526 PDZ domain 1 (Homo sapiens (Human)), Q9P202; assay: G assay titration, PDZ 5 ug/ml
# T2 chain: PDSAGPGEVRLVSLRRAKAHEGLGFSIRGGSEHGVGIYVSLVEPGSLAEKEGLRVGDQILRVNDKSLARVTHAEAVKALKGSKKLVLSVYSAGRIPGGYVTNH
# [3] = molecular target: T3, GST-SITAC-18 PDZ domain 2 (Homo sapiens (Human)), Q9H190; assay: G assay titration, PDZ 5 ug/ml
# T3 chain: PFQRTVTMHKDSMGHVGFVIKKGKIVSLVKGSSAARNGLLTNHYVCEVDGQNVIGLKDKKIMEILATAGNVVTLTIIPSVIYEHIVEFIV
# [4] = molecular target: T4, GST-AIPC PDZ domain 3 (Homo sapiens (Human)), O15018; assay: G' assay; further: key of the grades not given here
# T4 chain: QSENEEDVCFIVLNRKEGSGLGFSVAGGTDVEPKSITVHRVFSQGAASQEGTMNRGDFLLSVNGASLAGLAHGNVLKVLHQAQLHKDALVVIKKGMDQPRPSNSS
# [5] = molecular target: T5, GST-MUPP1 PDZ domain 4 (Homo sapiens (Human)), O75970; assay: G' assay; further: key of the grades not given here
# T5 chain: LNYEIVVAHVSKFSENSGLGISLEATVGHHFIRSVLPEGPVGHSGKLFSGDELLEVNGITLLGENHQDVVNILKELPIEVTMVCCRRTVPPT
# [6] = molecular target: T6, GST-GRIP 1 PDZ domain 6 (Mus musculus (Mouse)), Q925T6; assay: G' assay; further: key of the grades not given here
# T6 chain: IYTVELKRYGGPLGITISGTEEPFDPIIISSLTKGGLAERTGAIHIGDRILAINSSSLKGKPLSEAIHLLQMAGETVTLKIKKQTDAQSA
# [7] = molecular target: T7, GST-MINT1 PDZ domains 1, 2, Q02410; assay: G assay titration, PDZ 5 ug/ml
# T7 chain: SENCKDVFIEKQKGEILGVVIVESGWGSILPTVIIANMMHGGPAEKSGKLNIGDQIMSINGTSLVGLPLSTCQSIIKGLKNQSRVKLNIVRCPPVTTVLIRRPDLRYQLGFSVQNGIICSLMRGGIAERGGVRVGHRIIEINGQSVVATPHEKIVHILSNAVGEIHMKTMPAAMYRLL
# [8] = molecular target: T8, GST-Connector Enhancer PDZ domain 1 (Homo sapiens (Human)), Q969H4; assay: G assay titration, PDZ 5 ug/ml
# T8 chain: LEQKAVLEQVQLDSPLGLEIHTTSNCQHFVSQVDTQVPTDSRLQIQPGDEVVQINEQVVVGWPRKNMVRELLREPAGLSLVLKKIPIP
# [9] = molecular target: T9, GST-HEMBA 1003117 PDZ domain 1 (Homo sapiens (Human)), Q96JH8; assay: G assay titration, PDZ 5 ug/ml
# T9 chain: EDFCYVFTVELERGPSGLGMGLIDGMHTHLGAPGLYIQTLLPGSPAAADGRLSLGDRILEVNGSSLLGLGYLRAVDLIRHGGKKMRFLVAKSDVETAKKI
# [10] = molecular target: T10, GST-NeDLG PDZ domain 2 (Rattus norvegicus (Rat)), Q62936; assay: G assay titration, PDZ 5 ug/ml
# T10 chain: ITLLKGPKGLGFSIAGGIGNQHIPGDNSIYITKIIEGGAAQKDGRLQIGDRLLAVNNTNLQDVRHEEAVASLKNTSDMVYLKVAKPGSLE
# [11] = molecular target: GST-KIAA1634 PDZ domain 4 (Homo sapiens (Human)), Q5TCQ9; assay: G assay titration, PDZ 5 ug/ml
# [12] = molecular target: GST-BAI-1 Associated Protein PDZ domain 2 (Mus musculus (Mouse)), Q6RHR9; assay: G assay titration, PDZ 0.3 ug/ml
# [13] = molecular target: GST-BAI-1 Associated Protein PDZ domain 4 (Homo sapiens (Human)), Q96QZ7; assay: G assay titration, PDZ 0.3 ug/ml
# [14] = molecular target: T11, GST-DLG1 PDZ domain 2 (Homo sapiens), Q12959; assay: G assay titration, PDZ 0.3 ug/ml
# T11 chain: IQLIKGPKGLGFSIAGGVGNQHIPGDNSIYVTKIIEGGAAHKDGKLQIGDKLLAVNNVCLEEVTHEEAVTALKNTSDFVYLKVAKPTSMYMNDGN
# [15] = molecular target: T12, GST-rat SHANK 3 PDZ domain 1 (rat), Q9JLU4; assay: G' assay; further: key of the grades not given here
# T12 chain: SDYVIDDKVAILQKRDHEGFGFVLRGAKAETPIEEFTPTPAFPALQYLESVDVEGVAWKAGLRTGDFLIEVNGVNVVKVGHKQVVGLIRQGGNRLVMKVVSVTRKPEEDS
# [16] = molecular target: T13, GST-TIAM 2 PDZ domain 1 (Homo sapiens (Human)), Q8IVF5; assay: G' assay; further: key of the grades not given here
# T13 chain: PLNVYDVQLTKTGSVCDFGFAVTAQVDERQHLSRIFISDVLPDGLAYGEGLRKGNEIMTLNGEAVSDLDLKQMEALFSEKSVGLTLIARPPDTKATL
# [17] = molecular target: T14, GST-SYNTENIN PDZ domain 1 (Homo sapiens (Human)), O00560; assay: G assay titration, PDZ 5 ug/ml
# T14 chain: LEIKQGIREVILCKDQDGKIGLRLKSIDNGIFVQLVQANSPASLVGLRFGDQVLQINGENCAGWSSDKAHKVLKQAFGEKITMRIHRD
# [18] = molecular target: T15, GST-TIP-1 (Example 3) (human), O14907; assay: G assay titration, PDZ 0.1 ug/ml
# T15 chain: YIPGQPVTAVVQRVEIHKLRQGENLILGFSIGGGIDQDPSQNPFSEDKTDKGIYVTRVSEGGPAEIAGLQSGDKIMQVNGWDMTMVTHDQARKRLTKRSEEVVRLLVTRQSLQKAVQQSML
# [19] = molecular target: GST-DLG1 PDZ domains 1, 2 (Homo sapiens), Q12959; assay: G assay titration, PDZ 0.1 ug/ml
# Sequence of GST-BAI-1 Associated Protein PDZ domain 2 (Mus musculus (Mouse)), Q6RHR9 (Q6RHR9 455-558): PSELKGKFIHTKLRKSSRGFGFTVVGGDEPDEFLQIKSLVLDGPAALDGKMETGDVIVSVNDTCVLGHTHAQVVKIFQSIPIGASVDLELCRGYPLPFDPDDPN
# Sequence of GST-BAI-1 Associated Protein PDZ domain 4 (Homo sapiens (Human)), Q96QZ7 (Q96QZ7 other isoform, or with tags, fused parts or gaps): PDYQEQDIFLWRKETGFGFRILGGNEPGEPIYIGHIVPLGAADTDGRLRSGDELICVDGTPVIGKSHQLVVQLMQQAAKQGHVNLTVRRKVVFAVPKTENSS
# Sequence of GST-KIAA1634 PDZ domain 4 (Homo sapiens (Human)), Q5TCQ9 (Q5TCQ9 844-945): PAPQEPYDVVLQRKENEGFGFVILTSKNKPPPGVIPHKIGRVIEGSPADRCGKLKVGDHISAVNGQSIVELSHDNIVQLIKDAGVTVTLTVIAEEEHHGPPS
binder,measurement,setting,value
ILNSIQVMRAQMNQIQSVEV (modifications not checked) [ephrin B2],Kd,[1],6000 nM
same,Kd,[2],5000 nM
same,Kd,[3],5000 nM
same,Classification,[4],1 A450 class
same,Classification,[5],1 A450 class
same,Classification,[6],3 A450 class
PIPAGGCTFSGIFPTLTSPL (modifications not checked) [KIA 1481],Kd,[7],800 nM
VGTLLLERVIFPSVKIATLV (modifications not checked) [AdenoE4 typ9],Kd,[8],100 nM
same,Kd,[9],300 nM
same,Kd,[10],100 nM
same,Kd,[11],200 nM
same,Kd,[12],20 nM
same,Kd,[13],100 nM
same,Kd,[14],30 nM
VPGALDYAAFSSALYGESDL (modifications not checked) [a-actinin 2],Classification,[15],1 A450 class
"ELLQFCRTPNPALKNGQYWV (modifications not checked) [CSPG4 (chondroitin sulfae proteoglycan 4, melanoma-associated)]",Classification,[16],3 A450 class
KTMPAAMYRLLTAQEQPVYI (modifications not checked) [MINT-1],Kd,[17],800 nM
QISPGGLEPPSEKHFRETEV (modifications not checked) [TAX],Kd,[18],5 nM and 6 nM
same,maximum OD (450 nm),[18],3.3 OD and 2.1 OD
same,Kd,[19],200 nM and 130 nM
same,maximum OD (450 nm),[19],1.6 OD and 3.4 OD
